Laboratory results published in IntAct's records for PubMed 15234987.

B1: Zinc finger protein ZFPM1 (Mus musculus), O35615 (parent)
chain: MSRRKQSNPRQIKRSLRDMEAGEEAKAMDSSPKEQEAPDPEAPAIEEPPSPPREDVSPPAVPAPPESPEDPEDMEGQELEMRPQDEEKEEKEEEAAMASPWSGPEELELALQDGQRCVRARLSLTEGLSWGPFYGSIQTRALSPEREEPGPAVTLMVDESCWLRMLPQVLTEEAANSEIYRKDDALWCRVTKVVPSGGLLYVRLVTEPHGAPRHPVQEPVEPGGLAPVHTDIQLLPQQAGMASILATAVINKDVFPCKDCGIWYRSERNLQAHLLYYCASRQRAGSPVSATEEKPKETYPNERVCPFPQCRKSCPSASSLEIHMRSHSGERPFVCLICLSAFTTKANCERHLKVHTDTLSGVCHNCGFISTTRDILYSHLVTNHMVCQPGSKGEIYSPGAGHPAAKLPPDSLAGFQQHSLMHSPLVPADKAPTPSSGLDSKAEVTNGETRVPPQNGGSSESPAAPRTIKVEAAEEPEATRASGPGEPGPQAPSRTPSPHSPNPVRVKTELSSPTPGSSPGPGELTMAGTLFLPQYVFSPDAGTTTVPTAPQASEILAKMSELVHNRLQQGAGSSGAAGTPTGLFSGTKGATCFECEITFNNINNFYVHKRLYCSGRRAPEDPPTVRRPKAATGPARAPAGAAAEPDPSRSSPGPGPREEEASGTTTPEAEAAGRGSEGSQSPGSSVDDAEDDPSRTLCEACNIRFSRHETYTVHKRYYCASRHDPPPRRPPAPTTAPGPAAPALTAPPVRTRRRRKLYELPAAGAPPPAAGPAPVPVVPSPTAELPSSPRPGSASAGPAPALSPSPVPDGPIDLSKRPRRQSPDAPTALPALADYHECTACRVSFHSLEAYLAHKKYSCPAAPLRTTALCPYCPPNGRVRGDLVEHLRQAHGLQVAKPAASPGAEPRTPAERAPRDSPDGRAPRSPSPAPENTPSDPADQGARTPSKGPPAPAPAPGGGGGHRYCRLCNIRFSSLSTFIAHKKYYCSSHAAEHVK

Variants of: B1
Settings: with tacc3_mouse Tacc3, Q9JJ11
Sequence of tacc3_mouse Tacc3, Q9JJ11 (Q9JJ11 whole entry): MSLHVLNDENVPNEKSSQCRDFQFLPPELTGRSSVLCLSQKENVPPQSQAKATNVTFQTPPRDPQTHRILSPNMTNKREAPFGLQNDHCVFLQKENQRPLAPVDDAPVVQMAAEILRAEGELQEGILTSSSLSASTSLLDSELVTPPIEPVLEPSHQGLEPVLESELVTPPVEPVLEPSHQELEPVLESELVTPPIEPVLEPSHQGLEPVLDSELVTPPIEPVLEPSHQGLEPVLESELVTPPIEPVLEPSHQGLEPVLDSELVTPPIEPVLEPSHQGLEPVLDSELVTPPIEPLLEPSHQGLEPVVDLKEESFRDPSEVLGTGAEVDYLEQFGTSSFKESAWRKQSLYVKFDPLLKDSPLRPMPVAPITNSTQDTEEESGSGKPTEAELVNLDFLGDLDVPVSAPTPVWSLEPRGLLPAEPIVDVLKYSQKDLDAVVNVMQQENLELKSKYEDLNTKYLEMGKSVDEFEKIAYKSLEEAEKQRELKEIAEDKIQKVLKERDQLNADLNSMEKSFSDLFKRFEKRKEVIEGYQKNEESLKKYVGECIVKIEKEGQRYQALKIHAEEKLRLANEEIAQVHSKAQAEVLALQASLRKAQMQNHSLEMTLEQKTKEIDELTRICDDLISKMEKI

Effect of a mutation on the interaction, decreasing interaction:
V354A
T344A
T343A
N347A
R350A
